Residue numbers refer to the chain shown, from its start.
Experiments:
Assay in all cases: cell-based or functional assay
[1] = molecular target: T1, PBP1B (wild type, PBP1B^46-844) (E. coli, UniProt P02919 46-844)
T1 sequence (looked up): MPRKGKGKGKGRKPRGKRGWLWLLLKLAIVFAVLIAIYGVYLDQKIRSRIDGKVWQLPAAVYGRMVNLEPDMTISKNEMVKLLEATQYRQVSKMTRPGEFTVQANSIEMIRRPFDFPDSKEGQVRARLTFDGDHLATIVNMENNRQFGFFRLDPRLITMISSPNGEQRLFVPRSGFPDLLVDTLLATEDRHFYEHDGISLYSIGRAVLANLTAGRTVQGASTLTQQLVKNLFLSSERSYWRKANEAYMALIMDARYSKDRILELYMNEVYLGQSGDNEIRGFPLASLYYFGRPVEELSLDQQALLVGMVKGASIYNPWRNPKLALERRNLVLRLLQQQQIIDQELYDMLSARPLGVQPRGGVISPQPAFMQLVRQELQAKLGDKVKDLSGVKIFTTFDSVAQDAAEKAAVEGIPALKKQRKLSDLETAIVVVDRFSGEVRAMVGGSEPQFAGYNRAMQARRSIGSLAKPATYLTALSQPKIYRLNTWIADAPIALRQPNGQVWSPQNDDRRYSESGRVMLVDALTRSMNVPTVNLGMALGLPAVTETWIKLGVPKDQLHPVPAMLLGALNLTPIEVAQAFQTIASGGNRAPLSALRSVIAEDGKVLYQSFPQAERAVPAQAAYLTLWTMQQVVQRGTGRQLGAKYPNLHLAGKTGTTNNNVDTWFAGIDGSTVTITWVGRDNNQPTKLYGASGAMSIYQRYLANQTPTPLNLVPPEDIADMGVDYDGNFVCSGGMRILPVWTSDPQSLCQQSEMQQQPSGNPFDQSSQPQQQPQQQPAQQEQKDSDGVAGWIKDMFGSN

[2] = molecular target: T2, PBP1B Q318A (E. coli, UniProt P02919 46-844, Q318A)
T2 sequence (looked up): T1 sequence (looked up) with Q273A

[3] = molecular target: T3, PBP1B K355A (E. coli, UniProt P02919 46-844, K355A)
T3 sequence (looked up): T1 sequence (looked up) with K310A

B1: LpoB (natural protein, E. coli)
chain: VGQREPAPVEEVKPAPEQPAEPQQPVPTVPSVPTIPQQPGPIEHEDQTAPPAPHIRHYDWNGAMQPMVSKMLGADGVTAGSVLLVDSVNNRTNGSLNAAEATETLRNALANNGKFTLVSAQQLSMAKQQLGLSPQDSLGTRSKAIGIARNVGAHYVLYSSASGNVNAPTLQMQLMLVQTGEIIWSGKGAVSQQ
notes: LpoB, E. coli; also called lipoprotein LpoB; source: E. coli BL21(DE3), purified (HisTrap, Superdex 200), as in Egan et al. 2014
GTase rate of WT PBP1B with LpoB relative to the basal rate of WT PBP1B (continuous fluorescence assay, dansylated lipid II; 0.5 μM PBP1B, 2 μM LpoB) [1]: 10.2 fold
fold activation of the GTase rate of PBP1B Q318A by LpoB [2]: ~25 fold
fold activation of the GTase rate of PBP1B K355A by LpoB [3]: ~37 fold

Source: PMC6220978, “Induced conformational changes activate the peptidoglycan synthase PBP1B” (Molecular Microbiology, 2018)
